Experimental data reported in CN108285485A (WULUMUQI HENGKANG ZHIYUAN BIOTECHNOLOGY CO LTD, dated 2018).

B1: His-VHH-B7-c-Myc (VHH)
VHH: QVQLQESGGGSVQAGGSLRLSCVASQYTYNTVGWFRQAPGKEREGVAGIYNGGDQTYYSESAKGRFTISQDNAKRTVYLQMNSLKPEDTAMYYCAAGRLIVSGRWSMTKEEYQYWGQGTQVTVSS
notes: Bactrian camel VHH expressed from pET22b in BL21(DE3); not shown: His tag, named only in the construct name; c-Myc tag, named only in the construct name
B2: His-VHH-H5-c-Myc (VHH)
VHH: QVQLQESGGGSVQAGGSLRLSCAASGSTVRRRCMGWFRQAPGKEREEVAIVDNEGIEQYADFVKGRFTISRDNAKNTLYLQMNSLKPEDTAMYYCAMAPGYTPTGCLVYNTWGQGTQVTVSS
notes: as for B1
B3: His-VHH-H12-c-Myc (VHH)
VHH: QVQLQESGGGSVQAGGSLRLSCAVSGGTTRRRCMGWFRQAPGKEREEVASYDNQGIIKYADFVKGRFTISRDNAKNTLYLQMNTLKPEDTAMYYCAMAPGYDNRGCLVYNTWGQGTQVTVSS
notes: as for B1

Molecular target: PD-1蛋白 (程序性死亡受体-1)
Assay: non-competitive ELISA, PD-1 coated at 2, 1, 0.5 and 0.25 μg/ml, KA=(n-1)/(nAb'-Ab)

Chain of PD-1蛋白 (程序性死亡受体-1) (chain, as listed by the source): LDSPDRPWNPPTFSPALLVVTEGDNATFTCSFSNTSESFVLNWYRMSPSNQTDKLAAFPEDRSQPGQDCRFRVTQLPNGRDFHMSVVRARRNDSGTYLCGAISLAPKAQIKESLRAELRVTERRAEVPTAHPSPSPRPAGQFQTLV

| Binder | Ka [M⁻¹] |
| --- | --- |
| B1 | 2.31e+11 |
| B2 | 2.62e+11 |
| B3 | 4.79e+11 |
